According to publication PMC6745058 (Molecular cell, 2019):

Biological target: T1, Rtt107NTD (BRCT1-4 domains of Rtt107, residues 2-513) (S. cerevisiae, UniProt P38850 2-513)
T1 sequence (looked up): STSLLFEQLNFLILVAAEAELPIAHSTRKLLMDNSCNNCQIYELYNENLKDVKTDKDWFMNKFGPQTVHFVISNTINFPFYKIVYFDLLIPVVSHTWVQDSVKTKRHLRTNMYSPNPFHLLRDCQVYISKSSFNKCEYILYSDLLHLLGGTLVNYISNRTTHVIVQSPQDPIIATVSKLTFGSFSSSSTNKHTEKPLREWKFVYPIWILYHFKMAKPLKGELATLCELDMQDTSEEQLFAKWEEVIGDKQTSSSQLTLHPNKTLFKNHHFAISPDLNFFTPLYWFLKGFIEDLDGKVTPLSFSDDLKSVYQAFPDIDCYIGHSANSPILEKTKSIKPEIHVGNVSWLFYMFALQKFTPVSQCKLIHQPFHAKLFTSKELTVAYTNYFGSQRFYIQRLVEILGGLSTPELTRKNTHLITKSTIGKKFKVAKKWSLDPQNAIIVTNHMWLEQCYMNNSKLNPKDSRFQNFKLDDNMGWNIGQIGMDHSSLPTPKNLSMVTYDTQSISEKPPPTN
Test: ITC

Kd: 15 nM
Binder: DVDEPNPIVISDSEATDEEISIIYEPEFNENYLWAEE (peptide, UniProt Q06164 2-38, looked up) [Mms22RIM peptide (Mms22 residues 2-38)]
